{"source": "paper PMC5323130", "about": "(Oncotarget, 2016)", "note": "Where a SMILES comes first, the peptide text is derived from it. Where no end group is shown, it is not given here.", "data": [{"biological_target": "T1, hPD-1 (Homo sapiens, UniProt Q15116)", "T1 construct": "extracellular region of hPD-1 (amino acids 34–150); made in house; host or cells: E. coli BL21 (DE3)", "T1 sequence (Q15116 34-150)": "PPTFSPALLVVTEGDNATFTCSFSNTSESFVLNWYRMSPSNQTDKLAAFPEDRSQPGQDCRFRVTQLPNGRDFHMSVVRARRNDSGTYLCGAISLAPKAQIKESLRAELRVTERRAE", "assay": "SPR direct binding assay, hPD-1 immobilized on CM5 sensor chip", "conditions": "steady-state model, PBS-P buffer pH 7.4, 25°C, mean ± SD from three independent experiments", "protocol": "The purified active hPD-1 was diluted in 10 mM sodium acetate buffer (pH 4.5) to the final concentration of 50 μg/ml. The diluted hPD-1 was immobilized on a CM5 sensor chip by amino coupling reagent kit, and the immobilization level was 5000 response unit (RU). Binding experiments were performed in PBS-P buffer (8 mM Na2HPO4, 2 mM KH2PO4, 137 mM NaCl, 2.7 mM KCl, 0.005% surfactant P20, pH 7.4) at 25°C with a flow rate of 30 μl/min. […] RU values were collected and all the experimental data was globally analyzed by a steady-state model within Biacore T200 Evaluation software, version 2.0.", "units": {"Kd": "µM"}, "values": [{"molecule": "GNWDANSQRAQLYNQ [Peptide Y5A]", "Kd": "20.1 ± 0.98"}, {"molecule": "N[C@@H](Cc1c[nH]c2ccccc12)C(=O)N[C@@H](CC(=O)O)C(=O)N[C@@H](Cc1ccc(O)cc1)C(=O)N[C@@H](CC(=O)O)C(=O)O", "note": "[Ar3_1, WDYD] (H-WDYD-OH)", "Kd": "22.4 ± 0.34"}]}, {"biological_target": "T2, human programmed death 1 (hPD-1), extracellular region (amino acids 34-150) (human, UniProt Q15116 34-150)", "T2 construct": "extracellular region of human PD-1, amino acids 34-150, cloned into pET28a between NcoI and NdeI sites; purification was by cation exchange and gel filtration; also called CD279", "T2 sequence (Q15116 34-150)": "as above", "assay": "SPR; Biacore T200; hPD-1 immobilised on a CM5 chip by amine coupling (5000 RU); peptides or hPD-L1 injected 90 s, dissociation 120 s; PBS-P buffer pH 7.4, 25°C, 30 μl/min; steady-state model", "conditions": "both partners purified", "units": {"Kd": "µM"}, "values": [{"molecule": "FNWDYSLEELREKAKYK (de novo designed peptide with anchor residues Y56, R113, A121, D122 and Y123 of hPD-L1; source: synthetic peptide (Fmoc solid-phase synthesis))", "note": "[Ar5Y_2]", "Kd": 3.14}, {"molecule": "GNWDYNSQRAQLYNQ (de novo designed peptide with anchor residues Y56, R113, A121, D122 and Y123 of hPD-L1; source: synthetic peptide (Fmoc solid-phase synthesis))", "note": "[Ar5Y_4]", "Kd": 1.38}, {"molecule": "TEKDYRHGNIRMKLAYDL (de novo designed peptide with anchor residues Y56, R113, A121, D122 and Y123 of hPD-L1; source: synthetic peptide (Fmoc solid-phase synthesis))", "note": "[Ar5Y_3]", "Kd": 3.13}, {"molecule": "FNWDYSWKSERLKEAYDL (de novo designed peptide with anchor residues Y56, R113, A121, D122 and Y123 of hPD-L1; source: synthetic peptide (Fmoc solid-phase synthesis))", "note": "[Ar5Y_1]", "Kd": 3.39}]}, {"biological_target": "T2, human programmed death 1 (hPD-1), …", "assay": "SPR; Biacore T200; hPD-1 immobilised on a CM5 chip by amine coupling (5000 RU); peptides or hPD-L1 injected 90 s, dissociation 120 s; PBS-P buffer pH 7.4, 25°C, 30 μl/min; steady-state model", "conditions": "both partners purified", "remark": "another data set of the same source", "units": {"Kd": "µM"}, "values": [{"molecule": "GNADYNSQRAQLYNQ (numbers count on the peptide itself; source: synthetic peptide (Fmoc solid-phase synthesis))", "note": "[Ar5Y_4 mutant W3A]", "Kd": 8.08}, {"molecule": "GNWDANSQRAQLYNQ (numbers count on the peptide itself; source: synthetic peptide (Fmoc solid-phase synthesis))", "note": "[Ar5Y_4 mutant Y5A]", "Kd": 20.2}, {"molecule": "GNWDYNSQAAQLYNQ (numbers count on the peptide itself; source: synthetic peptide (Fmoc solid-phase synthesis))", "note": "[Ar5Y_4 mutant R9A]", "Kd": 21.2}, {"molecule": "GNWDYNSQRAQLANQ (numbers count on the peptide itself; source: synthetic peptide (Fmoc solid-phase synthesis))", "note": "[Ar5Y_4 mutant Y13A]", "Kd": 10.2}, {"molecule": "GNWAYNSQRAQLYNQ (numbers count on the peptide itself; source: synthetic peptide (Fmoc solid-phase synthesis))", "note": "[Ar5Y_4 mutant D4A]", "Kd": 18.9}]}, {"biological_target": "T2, human programmed death 1 (hPD-1), …", "assay": "SPR; Biacore T200; hPD-1 immobilised on a CM5 chip by amine coupling (5000 RU); peptides or hPD-L1 injected 90 s, dissociation 120 s; PBS-P buffer pH 7.4, 25°C, 30 μl/min; steady-state model", "conditions": "both partners purified", "remark": "another data set of the same source", "units": {"Kd": "µM"}, "values": [{"molecule": "GIDYEERWK (peptide designed with anchor residues R113, A121, D122 and Y123 of hPD-L1; source: synthetic peptide (Fmoc solid-phase synthesis))", "note": "[Ar4_1]", "Kd": 28.3}, {"molecule": "LDYVNRRKMYQ (peptide designed with anchor residues R113, M115, A121, D122 and Y123 of hPD-L1; source: synthetic peptide (Fmoc solid-phase synthesis))", "note": "[Ar5M_2]", "Kd": 3.32}, {"molecule": "LDYGDKREGQMAE (peptide designed with anchor residues R113, M115, A121, D122 and Y123 of hPD-L1; source: synthetic peptide (Fmoc solid-phase synthesis))", "note": "[Ar5M_1]", "Kd": 21.6}, {"molecule": "LDYDGRLSQ (peptide designed with anchor residues R113, A121, D122 and Y123 of hPD-L1; source: synthetic peptide (Fmoc solid-phase synthesis))", "note": "[Ar4_2]", "Kd": 83.9}]}]}
